Data reported in publication PMC7885909 (bioRxiv, 2021).

Columns and labels:
RaTG13 RBD = RaTG13 RBD (bat CoV RaTG13, GenBank MN996532.2, UniProt A0ABF7PLN6); assay: ELISA
SARS-CoV RBD = SARS-CoV RBD (SARS-CoV, GenBank ABD72970.1, UniProt Q202E5); assay: ELISA
WIV1 RBD = WIV1 RBD (bat SARS-like CoV WIV1, GenBank …, UniProt U5WI05); assay: ELISA
SHC014 RBD = SHC014 RBD (bat CoV SHC014, GenBank QJE50589.1, UniProt A0A6M3U4F6); assay: ELISA
[1] = target: T1, SARS-CoV-2 receptor binding domain (RBD), wild type, monomeric (SARS-CoV-2, GenBank MN975262.1 (wild …, UniProt A0A679G9E9)); assay: ELISA
[2] = target: T1, SARS-CoV-2 receptor binding domain …; assay: BLI

Measured: binding result

B1: ab072 IgG (antibody, V domains shown)
VH: not shown
VL: QSALTQPASVSGSPGQSITISCTGTSSDVGGYNYVSWYQQHPGKAPKLMIYDVSNRPSGVSNRFSGSKSGNTASLTISGLQAEDEADYYCSSYTSSSTLVVFGTGTKVTVL
binds: RaTG13 RBD | SARS-CoV RBD | WIV1 RBD | SHC014 RBD | [1]

B2: ab072 Fab (Fab, V domains shown)
VH: not shown
VL: QSALTQPASVSGSPGQSITISCTGTSSDVGGYNYVSWYQQHPGKAPKLMIYDVSNRPSGVSNRFSGSKSGNTASLTISGLQAEDEADYYCSSYTSSSTLVVFGTGTKVTVL
binds: [2]

B3: ab007 IgG (antibody, V domains shown)
VH: QVQLVQSGAEVKKPGSSVKVSCKASGGTFSSYAISWVRQAPGQGLEWMGGIIPIFGTANYAQKFQGRVTITADESTSTAYMELSSLRSEDTAVYYCASPHCSSTSCLYHYYYYGMDVWGQGTTVTVSS
VL: not shown
binds: [1]

B4: ab109 IgG (antibody, V domains shown)
VH: QVQLVQSGGGVVQPGRSLRLSCAASGFTFSSYAMHWVRQAPGKGLEWVAVISYDGSNKYYADSVKGRFTISRDNSKNTLYLQMNSLRAEDTAVYYCARDQEYYDILTGASGGFDYWGQGTLVTVSS
VL: not shown
binds: RaTG13 RBD | SARS-CoV RBD | WIV1 RBD | SHC014 RBD | [1]

B5: ab119 IgG (antibody, V domains shown)
VH: EVQLVESGGGLIQPGGSLRLSCAASGFTVSSNYMSWVRQAPGKGLEWVSVIYSGGSTYYADSVKGRFTISRDNSKNTLYLQMNSLRAEDTAVYYCARDLRGITWGQGTLVTVSS
VL: not shown
binds: [1]

B6: ab017 IgG (antibody, V domains shown)
VH: not shown
VL: QSVLTQPASVSGSPGQSITISCTGTSSDVGGYNYVSWYQQHPGKAPKLMIYDVSNRPSGVSNRFSGSKSGNTASLTISGLQAEDEADYYCSSYTSSSSVVFGGGTKLTVL
binds: RaTG13 RBD | SARS-CoV RBD | WIV1 RBD | SHC014 RBD | [1]

B7: ab114 IgG (antibody, V domains shown)
VH: QVQLVQSGGGVVQPGRSLRLSCAASGFTFSSYGMHWVRQAPGKGLEWVAVIWYDGSNKYYADSVKGRFTISRDNSKNTLYLQMNSLRAEDTAVYYCARDVSSGWSPGDFDYWGQGTLVTVSS
VL: QSVLTQPASVSGSPGQSITISCTGTSSDVGGYNYVSWYQQHPGKAPKLMIYEVSNRPSGVSNRFSGSKSGNTASLTISGLQAEDEADYYCSSYTSSSTYVFGTGTKVTVL
binds: RaTG13 RBD | SARS-CoV RBD | WIV1 RBD | SHC014 RBD | [1]
